Assays:
zif268 DBD R18Q (QE) [1] = target: T1, zif268 DBD R18Q (QE) (UniProt P08046 331-420, R349Q); test: EMSA (Scatchard); 30 mM Tris-HCl pH 8.0, 50 mM NaCl, 0.1 mg/ml BSA, 3 mM DTT, 20 uM ZnSO4, 5 ug/ml poly(dI-dC), 1 h on ice; 10% polyacrylamide gel
zif268 DBD E21N (RN) [2] = target: T2, zif268 DBD E21N (RN) (UniProt P08046 331-420, E352N); test: as above
[3] = target: T3, zif268 DBD wild type (RE) (UniProt P08046 331-420); test: as above
zif268 DBD R18D (DE) [4] = target: T4, zif268 DBD R18D (DE) (UniProt P08046 331-420, R349D); test: as above
[5] = target: T5, zif268 DBD R18Q/E21N (QN) (UniProt P08046 331-420, R349Q;E352N); test: EMSA (Scatchard x QuMFRA); derived; 30 mM Tris-HCl pH 8.0, 50 mM NaCl, 0.1 mg/ml BSA, 3 mM DTT, 20 uM ZnSO4, 5 ug/ml poly(dI-dC), 1 h on ice; 10% polyacrylamide gel
[6] = target: T6, zif268 DBD R18D/E21N (DN) (UniProt P08046 331-420, R349D;E352N); test: as above
[7] = target: T5, zif268 DBD R18Q/E21N (QN); test: competition EMSA (QuMFRA); 30 mM Tris-HCl pH 8.0, 50 mM NaCl, 0.1 mg/ml BSA, 3 mM DTT, 20 uM ZnSO4, 5 ug/ml poly(dI-dC), 1 h on ice; 10% polyacrylamide gel
[8] = target: T6, zif268 DBD R18D/E21N (DN); test: as above
zif268 DBD R18Q (QE) [9] = target: T1, zif268 DBD R18Q (QE); test: as above
zif268 DBD E21N (RN) [10] = target: T2, zif268 DBD E21N (RN); test: as above
[11] = target: T3, zif268 DBD wild type (RE); test: as above
zif268 DBD R18D (DE) [12] = target: T4, zif268 DBD R18D (DE); test: as above
zif268 DBD R18Q (QE) [13] = target: T1, zif268 DBD R18Q (QE); test: EMSA (Scatchard x QuMFRA); derived; 30 mM Tris-HCl pH 8.0, 50 mM NaCl, 0.1 mg/ml BSA, 3 mM DTT, 20 uM ZnSO4, 5 ug/ml poly(dI-dC), 1 h on ice; 10% polyacrylamide gel
zif268 DBD E21N (RN) [14] = target: T2, zif268 DBD E21N (RN); test: as above
[15] = target: T3, zif268 DBD wild type (RE); test: as above
zif268 DBD R18D (DE) [16] = target: T4, zif268 DBD R18D (DE); test: as above
[17] = target: T5, zif268 DBD R18Q/E21N (QN); test: EMSA (Scatchard); 30 mM Tris-HCl pH 8.0, 50 mM NaCl, 0.1 mg/ml BSA, 3 mM DTT, 20 uM ZnSO4, 5 ug/ml poly(dI-dC), 1 h on ice; 10% polyacrylamide gel
[18] = target: T6, zif268 DBD R18D/E21N (DN); test: as above

Binder | Ka (zif268 DBD R18Q (QE) [1]) | Ka (zif268 DBD E21N (RN) [2]) | Ka [3] | Ka (zif268 DBD R18D (DE) [4]) | Ka [5] | Ka [6] | binding signal [7] | binding signal [8] | binding signal (zif268 DBD R18Q (QE) [9]) | binding signal (zif268 DBD E21N (RN) [10]) | binding signal [11] | binding signal (zif268 DBD R18D (DE) [12]) | Ka (zif268 DBD R18Q (QE) [13]) | Ka (zif268 DBD E21N (RN) [14]) | Ka [15] | Ka (zif268 DBD R18D (DE) [16]) | Ka [17] | Ka [18]
Zif_3 (CC) (dsDNA) DNA 1: TCGAGGTCGACGGTATCGCGTGGGCCCTCCACTAGTTCTAGAGCGGCCGCCAC DNA 2: GTGGCGGCCGCTCTAGAACTAGTGGAGGGCCCACGCGATACCGTCGACCTCGA | 6.4 10^6 M-1 | 33 10^6 M-1 | 33 10^6 M-1 | 4.7 10^6 M-1 | 3.9 10^6 M-1 | 3.1 10^6 M-1 | 0.53 Ka relative to CG | 2.61 Ka relative to CG | 2.17 Ka relative to CG | 0.41 Ka relative to CG | 0.082 Ka relative to CG | 1.91 Ka relative to CG | – | – | – | – | – | –
Zif_5 (AA) (dsDNA) DNA 1: TCGAGGTCGACGGTATCGCGTGGGAACTCCACTAGTTCTAGAGCGGCCGCCAC DNA 2: GTGGCGGCCGCTCTAGAACTAGTGGAGTTCCCACGCGATACCGTCGACCTCGA | – | – | – | – | 18 10^6 M-1 | 4.8 10^6 M-1 | 2.47 Ka relative to CG | 4.02 Ka relative to CG | 1.36 Ka relative to CG | 0.68 Ka relative to CG | 0.064 Ka relative to CG | 2.25 Ka relative to CG | 4 10^6 M-1 | 56 10^6 M-1 | 26 10^6 M-1 | 3.7 10^6 M-1 | – | –
Zif_2 (CA) (dsDNA) DNA 1: TCGAGGTCGACGGTATCGCGTGGGCACTCCACTAGTTCTAGAGCGGCCGCCAC DNA 2: GTGGCGGCCGCTCTAGAACTAGTGGAGTGCCCACGCGATACCGTCGACCTCGA | – | – | – | – | 3.5 10^6 M-1 | 1.4 10^6 M-1 | 0.49 Ka relative to CG | 1.21 Ka relative to CG | 1.5 Ka relative to CG | 0.36 Ka relative to CG | 0.27 Ka relative to CG | 1.16 Ka relative to CG | 4.5 10^6 M-1 | 30 10^6 M-1 | 109 10^6 M-1 | 2.8 10^6 M-1 | – | –
Zif_1 (CG) (dsDNA) DNA 1: TCGAGGTCGACGGTATCGCGTGGGCGCTCCACTAGTTCTAGAGCGGCCGCCAC DNA 2: GTGGCGGCCGCTCTAGAACTAGTGGAGCGCCCACGCGATACCGTCGACCTCGA | – | – | – | – | 7.4 10^6 M-1 | 1.2 10^6 M-1 | – | – | – | – | – | – | 3 10^6 M-1 | 81 10^6 M-1 | 406 10^6 M-1 | 2.5 10^6 M-1 | – | –
Zif_6 (AC) (dsDNA) DNA 1: TCGAGGTCGACGGTATCGCGTGGGACCTCCACTAGTTCTAGAGCGGCCGCCAC DNA 2: GTGGCGGCCGCTCTAGAACTAGTGGAGGTCCCACGCGATACCGTCGACCTCGA | – | – | – | – | 21 10^6 M-1 | 14 10^6 M-1 | 2.78 Ka relative to CG | 11.8 Ka relative to CG | 1.93 Ka relative to CG | 0.94 Ka relative to CG | 0.041 Ka relative to CG | 3.08 Ka relative to CG | 5.7 10^6 M-1 | 77 10^6 M-1 | 16 10^6 M-1 | 5.5 10^6 M-1 | – | –
Zif_4 (AG) (dsDNA) DNA 1: TCGAGGTCGACGGTATCGCGTGGGAGCTCCACTAGTTCTAGAGCGGCCGCCAC DNA 2: GTGGCGGCCGCTCTAGAACTAGTGGAGCTCCCACGCGATACCGTCGACCTCGA | – | – | – | – | – | – | 4.45 Ka relative to CG | 14.5 Ka relative to CG | 1.3 Ka relative to CG | 1.29 Ka relative to CG | 0.15 Ka relative to CG | 1.48 Ka relative to CG | 3.9 10^6 M-1 | 105 10^6 M-1 | 63 10^6 M-1 | 3.6 10^6 M-1 | 33 10^6 M-1 | 17 10^6 M-1
